The values below are quoted from earlier work in US20030175848A1, “Substituted dithiobisnitrobenzenes and their applications” (Institut Pasteur De Lille, priority 1998, published 2003).

The target in this data set is T1, human thioredoxin reductase (hTrxR) (Homo sapiens, UniProt Q16881).
T1 construct: U of native hTrxR; from tissue; host or cells: human placenta
T1 sequence (Q16881 151-649 limits assumed): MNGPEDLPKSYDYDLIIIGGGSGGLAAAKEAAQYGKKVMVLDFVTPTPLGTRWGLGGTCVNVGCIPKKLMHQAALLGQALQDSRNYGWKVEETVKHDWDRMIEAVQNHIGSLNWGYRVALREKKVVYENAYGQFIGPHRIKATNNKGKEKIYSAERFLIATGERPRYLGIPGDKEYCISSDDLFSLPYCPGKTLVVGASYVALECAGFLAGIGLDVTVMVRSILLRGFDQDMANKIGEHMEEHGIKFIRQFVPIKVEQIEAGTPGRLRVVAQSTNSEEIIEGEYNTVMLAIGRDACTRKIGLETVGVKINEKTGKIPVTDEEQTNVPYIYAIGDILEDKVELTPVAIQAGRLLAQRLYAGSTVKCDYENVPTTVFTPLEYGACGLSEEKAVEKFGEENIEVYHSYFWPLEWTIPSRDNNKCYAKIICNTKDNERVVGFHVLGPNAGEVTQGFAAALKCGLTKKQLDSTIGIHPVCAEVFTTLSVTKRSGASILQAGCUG
As to conditions: substrate of native hTrxR (placenta); references [29], [38].

B1: HTrx: human thioredoxin, physiological substrate of hTrxR (protein, UniProt P10599 2-105, looked up)
Thioredoxin: VKQIESKTAFQEALDAAGDKLVVVDFSATWCGPCKMIKPFFHSLSEKYSNVIFLEVDVDDCQDVASECEVKCMPTFQFFKKGQKVGEFSGANKEKLEATINELV
In the case of B1, the Km was 4.3 µM.
